Reference: the supplement of paper PMC9112550, “Optimization of the antimicrobial peptide Bac7 by deep mutational scanning” (BMC Biology, 2022)

System: Escherichia coli TOP10
Experiment: shrunken log2 fold change of peptide-encoding DNA abundance (4.5 h post-induction vs induction); higher = less antimicrobial activity (less host growth inhibition)
Conditions: time post-induction: 4.5 h; library: site-saturation at positions 5, 18, 19, 20
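Also: peptides expressed intracellularly from a pBAD plasmid library in pooled LB shake-flask culture, induced with 0.3% L-arabinose, DNA abundance read by NGS, three biological replicates, DESeq2 with apeglm shrinkage.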

## RRIRWRPPRLPRPRPRPHQEPRP
  shrunken log2 fold change: 0.0101

## RRIRTRPPRLPRPRPRPIEIPRP
  shrunken log2 fold change: -0.0171

## RRIRKRPPRLPRPRPRPSPYPRP
  shrunken log2 fold change: -0.0694

## RRIRFRPPRLPRPRPRPSQLPRP
  shrunken log2 fold change: -0.462

## RRIRMRPPRLPRPRPRPTLYPRP
  shrunken log2 fold change: 0.16

## RRIRCRPPRLPRPRPRPLDDPRP
  shrunken log2 fold change: -0.119

## RRIRTRPPRLPRPRPRPIPRPRP
  shrunken log2 fold change: 0.299

## RRIRYRPPRLPRPRPRPNHNPRP
  shrunken log2 fold change: -1.23

## RRIRVRPPRLPRPRPRPVYPPRP
  shrunken log2 fold change: -0.389

## RRIRRRPPRLPRPRPRPGWVPRP
  shrunken log2 fold change: 0.359

## RRIRQRPPRLPRPRPRPYKIPRP
  shrunken log2 fold change: -0.568

## RRIRWRPPRLPRPRPRPLMRPRP
  shrunken log2 fold change: 0.858

## RRIRVRPPRLPRPRPRPQPMPRP
  shrunken log2 fold change: 2.31

## RRIRTRPPRLPRPRPRPLHKPRP
  shrunken log2 fold change: 0.0334

## RRIRARPPRLPRPRPRPYMYPRP
  shrunken log2 fold change: -0.635

## RRIRERPPRLPRPRPRPFEYPRP
  shrunken log2 fold change: 0.0143

## RRIRLRPPRLPRPRPRPDNSPRP
  shrunken log2 fold change: -0.0436

## RRIRSRPPRLPRPRPRPLYNPRP
  shrunken log2 fold change: -0.344

## RRIRNRPPRLPRPRPRPNCMPRP
  shrunken log2 fold change: -0.0251

## RRIRMRPPRLPRPRPRPYELPRP
  shrunken log2 fold change: 0.0224

## RRIRARPPRLPRPRPRPSWFPRP
  shrunken log2 fold change: 0.156

## RRIRSRPPRLPRPRPRPEPYPRP
  shrunken log2 fold change: 0.0691

## RRIRVRPPRLPRPRPRPDDFPRP
  shrunken log2 fold change: 0.0492

## RRIRVRPPRLPRPRPRPTSEPRP
  shrunken log2 fold change: 0.066

## RRIRFRPPRLPRPRPRPLMNPRP
  shrunken log2 fold change: -0.607

## RRIRGRPPRLPRPRPRPDPAPRP
  shrunken log2 fold change: 1.06

## RRIRWRPPRLPRPRPRPFVQPRP
  shrunken log2 fold change: -0.184

## RRIRFRPPRLPRPRPRPQMTPRP
  shrunken log2 fold change: -0.169

## RRIRTRPPRLPRPRPRPIDNPRP
  shrunken log2 fold change: -0.51

## RRIRCRPPRLPRPRPRPQMYPRP
  shrunken log2 fold change: -0.14

## RRIRNRPPRLPRPRPRPLCPPRP
  shrunken log2 fold change: -0.141

## RRIRWRPPRLPRPRPRPQDAPRP
  shrunken log2 fold change: -0.0395

## RRIRLRPPRLPRPRPRPNFVPRP
  shrunken log2 fold change: -0.196

## RRIRHRPPRLPRPRPRPNFAPRP
  shrunken log2 fold change: 0.303

## RRIRYRPPRLPRPRPRPSIYPRP
  shrunken log2 fold change: -1.09

## RRIRCRPPRLPRPRPRPVTIPRP
  shrunken log2 fold change: -0.461

## RRIRMRPPRLPRPRPRPTMNPRP
  shrunken log2 fold change: 0.0381

## RRIRMRPPRLPRPRPRPYLEPRP
  shrunken log2 fold change: -0.0515

## RRIRMRPPRLPRPRPRPVDNPRP
  shrunken log2 fold change: 0.113

## RRIRSRPPRLPRPRPRPSCDPRP
  shrunken log2 fold change: -0.444

## RRIRWRPPRLPRPRPRPDRWPRP
  shrunken log2 fold change: 0.827

## RRIRWRPPRLPRPRPRPKCGPRP
  shrunken log2 fold change: 0.594

## RRIRARPPRLPRPRPRPCQSPRP
  shrunken log2 fold change: -0.0122

## RRIRVRPPRLPRPRPRPKDCPRP
  shrunken log2 fold change: -0.107

## RRIRERPPRLPRPRPRPYAFPRP
  shrunken log2 fold change: -0.961

## RRIRLRPPRLPRPRPRPLCFPRP
  shrunken log2 fold change: -0.233

## RRIRARPPRLPRPRPRPISAPRP
  shrunken log2 fold change: 0.294

## RRIRVRPPRLPRPRPRPHKPPRP
  shrunken log2 fold change: -0.0132

## RRIRARPPRLPRPRPRPMQQPRP
  shrunken log2 fold change: 0.281

## RRIRPRPPRLPRPRPRPNRGPRP
  shrunken log2 fold change: 0.0424

## RRIRYRPPRLPRPRPRPVFRPRP
  shrunken log2 fold change: -0.258

## RRIRTRPPRLPRPRPRPWKFPRP
  shrunken log2 fold change: -0.0178

## RRIRIRPPRLPRPRPRPVFFPRP
  shrunken log2 fold change: -0.107

## RRIRVRPPRLPRPRPRPHAAPRP
  shrunken log2 fold change: 0.156

## RRIRKRPPRLPRPRPRPGRPPRP
  shrunken log2 fold change: 0.857

## RRIRGRPPRLPRPRPRPTQSPRP
  shrunken log2 fold change: 1.08

## RRIRFRPPRLPRPRPRPLENPRP
  shrunken log2 fold change: -0.0435

## RRIRKRPPRLPRPRPRPGERPRP
  shrunken log2 fold change: -0.116

## RRIRQRPPRLPRPRPRPKPTPRP
  shrunken log2 fold change: -0.0515

## RRIRNRPPRLPRPRPRPDIRPRP
  shrunken log2 fold change: -0.01

## RRIRCRPPRLPRPRPRPRKKPRP
  shrunken log2 fold change: -0.125

## RRIRSRPPRLPRPRPRPWGMPRP
  shrunken log2 fold change: -0.0848

## RRIRQRPPRLPRPRPRPIIAPRP
  shrunken log2 fold change: 0.00878

## RRIRDRPPRLPRPRPRPVEYPRP
  shrunken log2 fold change: 0.0163

## RRIRDRPPRLPRPRPRPSNKPRP
  shrunken log2 fold change: -0.325

## RRIRWRPPRLPRPRPRPRHIPRP
  shrunken log2 fold change: -0.0148

## RRIRKRPPRLPRPRPRPPCWPRP
  shrunken log2 fold change: 1.03

## RRIRARPPRLPRPRPRPWMIPRP
  shrunken log2 fold change: -0.0822

## RRIRFRPPRLPRPRPRPPRWPRP
  shrunken log2 fold change: 0.659

## RRIRWRPPRLPRPRPRPNPGPRP
  shrunken log2 fold change: 0.108

## RRIRVRPPRLPRPRPRPFVVPRP
  shrunken log2 fold change: -0.107

## RRIRVRPPRLPRPRPRPIFAPRP
  shrunken log2 fold change: 0.231

## RRIRSRPPRLPRPRPRPDQCPRP
  shrunken log2 fold change: -0.209

## RRIRVRPPRLPRPRPRPQQSPRP
  shrunken log2 fold change: -0.0738

## RRIRFRPPRLPRPRPRPLCAPRP
  shrunken log2 fold change: -0.0266

## RRIRARPPRLPRPRPRPWHAPRP
  shrunken log2 fold change: 0.288

## RRIRGRPPRLPRPRPRPKTQPRP
  shrunken log2 fold change: 0.929

## RRIRSRPPRLPRPRPRPLADPRP
  shrunken log2 fold change: -0.0259

## RRIRGRPPRLPRPRPRPDPHPRP
  shrunken log2 fold change: 0.507

## RRIRIRPPRLPRPRPRPVVWPRP
  shrunken log2 fold change: 0.321

## RRIRTRPPRLPRPRPRPLFQPRP
  shrunken log2 fold change: -0.348

## RRIRPRPPRLPRPRPRPDTIPRP
  shrunken log2 fold change: -0.247

## RRIRDRPPRLPRPRPRPNPKPRP
  shrunken log2 fold change: 0.165

## RRIRERPPRLPRPRPRPVVEPRP
  shrunken log2 fold change: 0.118

## RRIRMRPPRLPRPRPRPLEVPRP
  shrunken log2 fold change: 0.405

## RRIRPRPPRLPRPRPRPWYAPRP
  shrunken log2 fold change: -0.107

## RRIRRRPPRLPRPRPRPAYEPRP
  shrunken log2 fold change: 0.138

## RRIRMRPPRLPRPRPRPYVRPRP
  shrunken log2 fold change: -0.313

## RRIRERPPRLPRPRPRPINGPRP
  shrunken log2 fold change: 0.0683

## RRIRLRPPRLPRPRPRPWRQPRP
  shrunken log2 fold change: -0.121

## RRIRRRPPRLPRPRPRPCGSPRP
  shrunken log2 fold change: 0.0143

## RRIRNRPPRLPRPRPRPEWWPRP
  shrunken log2 fold change: 0.315

## RRIRQRPPRLPRPRPRPLWQPRP
  shrunken log2 fold change: 0.296

## RRIRSRPPRLPRPRPRPEYTPRP
  shrunken log2 fold change: -0.0105

## RRIRTRPPRLPRPRPRPTATPRP
  shrunken log2 fold change: 0.286

## RRIRKRPPRLPRPRPRPWQKPRP
  shrunken log2 fold change: 0.121

## RRIRARPPRLPRPRPRPLCDPRP
  shrunken log2 fold change: 2.32

## RRIRKRPPRLPRPRPRPHAAPRP
  shrunken log2 fold change: -0.0457

## RRIRRRPPRLPRPRPRPHEDPRP
  shrunken log2 fold change: 0.0653

## RRIRERPPRLPRPRPRPLYTPRP
  shrunken log2 fold change: -0.41

## RRIRARPPRLPRPRPRPSPSPRP
  shrunken log2 fold change: 0.52

## RRIRDRPPRLPRPRPRPRKEPRP
  shrunken log2 fold change: -0.00977

## RRIRHRPPRLPRPRPRPISDPRP
  shrunken log2 fold change: -0.179

## RRIRDRPPRLPRPRPRPSELPRP
  shrunken log2 fold change: -0.184

## RRIRKRPPRLPRPRPRPTSYPRP
  shrunken log2 fold change: -0.152

## RRIRHRPPRLPRPRPRPPYYPRP
  shrunken log2 fold change: -0.296

## RRIRSRPPRLPRPRPRPGMEPRP
  shrunken log2 fold change: 0.148

## RRIRQRPPRLPRPRPRPALWPRP
  shrunken log2 fold change: 0.144

## RRIRSRPPRLPRPRPRPETMPRP
  shrunken log2 fold change: 0.205

## RRIRCRPPRLPRPRPRPGNTPRP
  shrunken log2 fold change: -0.205

## RRIRVRPPRLPRPRPRPFKTPRP
  shrunken log2 fold change: 0.146

## RRIRFRPPRLPRPRPRPYVCPRP
  shrunken log2 fold change: -0.301

## RRIRSRPPRLPRPRPRPFEVPRP
  shrunken log2 fold change: -0.109

## RRIRKRPPRLPRPRPRPNWKPRP
  shrunken log2 fold change: 0.363

## RRIRIRPPRLPRPRPRPQGCPRP
  shrunken log2 fold change: -0.00156

## RRIRLRPPRLPRPRPRPNAIPRP
  shrunken log2 fold change: -0.385

## RRIRPRPPRLPRPRPRPDWPPRP
  shrunken log2 fold change: 0.524

## RRIRYRPPRLPRPRPRPLVMPRP
  shrunken log2 fold change: -0.372

## RRIRYRPPRLPRPRPRPPCDPRP
  shrunken log2 fold change: -0.196

## RRIRYRPPRLPRPRPRPQKYPRP
  shrunken log2 fold change: -0.969

## RRIRLRPPRLPRPRPRPFAWPRP
  shrunken log2 fold change: -0.00134

## RRIRNRPPRLPRPRPRPEHVPRP
  shrunken log2 fold change: -0.0119

## RRIRGRPPRLPRPRPRPPLMPRP
  shrunken log2 fold change: 0.717

## RRIRYRPPRLPRPRPRPYEYPRP
  shrunken log2 fold change: -0.095

## RRIRLRPPRLPRPRPRPRRMPRP
  shrunken log2 fold change: 0.053

## RRIRTRPPRLPRPRPRPDPDPRP
  shrunken log2 fold change: -0.0398

## RRIRSRPPRLPRPRPRPLGRPRP
  shrunken log2 fold change: 0.351

## RRIRNRPPRLPRPRPRPVYCPRP
  shrunken log2 fold change: -0.688

## RRIRERPPRLPRPRPRPTGWPRP
  shrunken log2 fold change: 0.0993

## RRIRDRPPRLPRPRPRPTLKPRP
  shrunken log2 fold change: -0.0215

## RRIRYRPPRLPRPRPRPEWKPRP
  shrunken log2 fold change: -0.000687

## RRIRVRPPRLPRPRPRPDSGPRP
  shrunken log2 fold change: -0.0439

## RRIRDRPPRLPRPRPRPLFPPRP
  shrunken log2 fold change: -0.116

## RRIRQRPPRLPRPRPRPDTFPRP
  shrunken log2 fold change: -0.00762

## RRIRKRPPRLPRPRPRPHKGPRP
  shrunken log2 fold change: -0.0331

## RRIRRRPPRLPRPRPRPYATPRP
  shrunken log2 fold change: 0.418

## RRIRVRPPRLPRPRPRPQQMPRP
  shrunken log2 fold change: 0.0393

## RRIRSRPPRLPRPRPRPNNWPRP
  shrunken log2 fold change: -0.0732

## RRIRERPPRLPRPRPRPDISPRP
  shrunken log2 fold change: 0.0621

## RRIRARPPRLPRPRPRPLAYPRP
  shrunken log2 fold change: 0.293

## RRIRNRPPRLPRPRPRPQIQPRP
  shrunken log2 fold change: -0.214

## RRIRIRPPRLPRPRPRPRMGPRP
  shrunken log2 fold change: -0.192

## RRIRLRPPRLPRPRPRPMVMPRP
  shrunken log2 fold change: -0.0937

## RRIRVRPPRLPRPRPRPLQFPRP
  shrunken log2 fold change: -0.149

## RRIRSRPPRLPRPRPRPFIDPRP
  shrunken log2 fold change: -0.0941

## RRIRYRPPRLPRPRPRPLGMPRP
  shrunken log2 fold change: -0.807

## RRIRIRPPRLPRPRPRPQCHPRP
  shrunken log2 fold change: -0.594

## RRIRRRPPRLPRPRPRPCMFPRP
  shrunken log2 fold change: -0.0745

## RRIRKRPPRLPRPRPRPKCSPRP
  shrunken log2 fold change: 0.00677

## RRIRARPPRLPRPRPRPAYCPRP
  shrunken log2 fold change: -0.00541
